According to paper doi:10.1101/2023.01.08.523187 (bioRxiv, 2023):

Experiments:
Canine HER2 = Canine HER2 (Canis lupus familiaris, UniProt O18735); assay: SPR
[1] = biological target: HER2 on HER2+ SK-OV-3 ovarian cancer cells (Homo sapiens, SK-OV-3 cells, UniProt P04626); assay: ELISA
[2] = biological target: Wildtype HER2 domain IV fragment (residues 510-629 of human HER2) (Homo sapiens, UniProt P04626); assay: SPR

Binder | binding result (Canine HER2) | fold change of EC50 against trastuzumab [1] [fold] | binding result [2]
Candidate 2 (de novo designed HCDR3, IgG1 mAb) (antibody, V domains shown) VH: EVQLVESGGGLVQPGGSLRLSCAASGFNIKDTYIHWVRQAPGKGLEWVARIYPTNGYTRYADSVKGRFTISADTSKNTAYLQMNSLRAEDTAVYYCARYYYGFYYFDYWGQGTLVTVSS VL: not shown | binds | ~3 | 
Candidate 3 (de novo designed HCDR3, IgG1 mAb) (antibody, V domains shown) VH: EVQLVESGGGLVQPGGSLRLSCAASGFNIKDTYIHWVRQAPGKGLEWVARIYPTNGYTRYADSVKGRFTISADTSKNTAYLQMNSLRAEDTAVYYCARWGNYYYYMDYWGQGTLVTVSS VL: not shown |  |  | binds
